Test results: US20250243243A1 (HONG KONG UNIVERSITY OF SCIENCE AND TECHNOLOGY, published 2025)
Each block holds one binder with its values, some of them ahead of it. Where no end group is shown, it is not given here.

Experiments:
[1] = molecular target: T1, CW peptides (KRRHPKKC) (C-terminal cysteine added for coupling to thiopyridone-Sepharose 6B beads (pull-down)); assay: ITC, 500 µM CW peptide injected into 50 µM GST-SURF4 (49-60), one set of sites model
T1 construct: CW motif of Shh (mouse residues 33-39, human 32-38) plus an added C-terminal Cys; On beads in the pull-downs, free in solution in ITC; also called Cardin-Weintraub peptide; synthetic CW peptides
T1 peptide: KRRHPKKC
Protocol: We utilized a commercial isothermal titration calorimeter (PEAQ-ITC system, MicroCal, Malvern Panalytical, United Kingdom) to perform titration experiments. […] During each ITC experiment, 19 injections of CW peptide into the calorimetric cell were carried out while duration of each injection was 4 s and the time between the injections was 150 s. The volume of each injection was 2 μL and the stirring speed was maintained at 750 rpm. Control experiments such as peptide to buffer and buffer to protein titrations were also done to account for non-specific interactions and heat of dilution. The binding constant (Kd) was derived by fitting the data with one set of site model using the MicroCal PEAQ-ITC analysis software.

[2] = molecular target: T2, ShhN^1-198-HA (mouse, UniProt Q62226 25-198); assay: quantification of the co-immunoprecipitation (n=3)
T2 construct: also called ShhN-HA; not shown: C-terminal 3xHA tag
Source text: FIG. 3D. […] FIG. 3E. […] FIG. 3F. […] FIG. 3G. […] FIG. 3O.

[3] = molecular target: T3, GST (UniProt P08515 1-218 = GST); assay: pull-down on beads carrying peptides of the predicted first luminal loop of SURF4, purified prey, anti-GST immunoblot
T3 construct: Control protein purified from E. coli; also called GST alone; purified GST
T3 sequence (P08515 whole entry): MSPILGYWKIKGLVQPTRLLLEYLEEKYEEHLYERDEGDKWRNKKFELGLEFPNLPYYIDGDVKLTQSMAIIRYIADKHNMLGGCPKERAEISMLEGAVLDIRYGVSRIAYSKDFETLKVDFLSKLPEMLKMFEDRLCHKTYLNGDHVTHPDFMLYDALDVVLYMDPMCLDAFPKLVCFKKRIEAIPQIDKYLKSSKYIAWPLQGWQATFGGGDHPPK

T2 sequence (Q62226 25-198): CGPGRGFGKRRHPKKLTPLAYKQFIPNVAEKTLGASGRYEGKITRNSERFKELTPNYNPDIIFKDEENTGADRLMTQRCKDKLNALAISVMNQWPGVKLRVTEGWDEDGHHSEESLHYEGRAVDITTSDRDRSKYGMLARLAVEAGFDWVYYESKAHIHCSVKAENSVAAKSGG

Kd [1]: 2.35 µM
B1: GST-SURF4^49-60 (other)
chain: {GST}-SEQRDYIDTTWN
modifications: also: GST tag linker not given here
notes: Purified from E. coli; also called N-terminal GST-tagged SURF4^49-60; GST-tagged SURF4^49-60; not shown: glutathione S-transferase (GST) tag, N-terminal

binding result [2]: binds
B2: SURF4^ED-AA-Myc (receptor)
chain: GQNDLMGTAEDFADQFLRVTKQYLPHVARLCLISTFLEDGIRMWFQWSAQRAYIATTWNCGYLLASSFVFLNLLGQLTGCVLVLSRNFVQYACFGLFGIIALQTIAYSILWDLKFLMRNLALGGGLLLLLAESRSEGKSMFAGVPTMRESSPKQYMQLGGRVLLVLMFMTLLHFDASFFSIVQNIVGTALMILVAIGFKTKLAALTLVVWLFAINVYFNAFWTIPVYKPMHDFLKYDFFQTMSVIGGLLLVVALGPGGVSMDEKKKEW
notes: SURF4-3xMyc with E50, D53 and D56 changed to alanine; also called Myc-tagged SURF4^ED-AA; not shown: C-terminal 3xMyc tag

binding result [3]: no binding
B3: SURF4 luminal peptides (SEQRDYIDTTWNC) (peptide)
peptide: SEQRDYIDTTWNC
modifications: not fully specified (residue 13)
notes: Immobilised on beads as bait; also called SURF4^49-61 peptides; SURF4 peptide
